The data set in a line: amyloid nucleation score (Sup35N fusion, yeast selection) (log enrichment); library NNK1; higher = more nucleation; inactive = no reads after selection. In a few lines:
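In psi-negative yeast, Sup35N fusions carrying peptides of 20 random codons were induced with 100 μM copper sulfate for 24 hours. The cells then grew 7 days at 30°C on medium lacking adenine and uracil, and plasmid inserts from input and output were Illumina-sequenced, excluding sequences with under 100 input reads. Nucleation score is the DiMSum log enrichment of output over input reads, centred on the mode score of non-aggregating sequences.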

± gives the uncertainty stated by the source.

On to NIGMRDTGVLLDKLCQV, for which the amyloid nucleation score is -0.594 ± 0.65.

Turning to LIVNLKICAVHVGYHWGWRA, the amyloid nucleation score stood at 0.653 ± 0.29. In the case of MRSKREMSFMTHEILVCNDA it was 0.509 ± 0.31; in that of KDRWTCSFVAVCMRYLFAKS, 0.134 ± 0.46. The same measure for VNAIYDSWLSL: “inactive”; for WMRKVIPTNGTVDIETSS: 0.438 ± 0.33; for RWSIELCVRM: -0.367 ± 0.51. In the case of SMAIVDRWLMQGSSQPAGS it was 0.702 ± 0.53.

As to TKSMFGTCNMFKTKVLN, the amyloid nucleation score is -0.101 ± 0.49. As for LVSMSYSVREDDFISLLWGV, the amyloid nucleation score entry was “inactive”. In the case of HFVILVLFMMMSSIGMVTRA it was 5.16 ± 0.054; in that of CKSESRFLFAYNSLCLKSMG, -0.043 ± 0.3; in that of YLIFKSFK, 1.25 ± 0.61.

The substance KRLRTKFYVVLYFSYMSSTL displayed an amyloid nucleation score of -1.52 ± 1.5.

QRMCVYLGTLPLSLLGRMWG: the amyloid nucleation score amounted to 0.175 ± 1.1. The same measure for LFGGFMFLGKWDQLHGHNEC: 0.799 ± 0.49; for DFYFYKLSLIFKSAFRWFPV: -0.359 ± 1.2. The same measure for GFKGQRNNAIQVMGKKNRLQ: -0.238 ± 0.59; for CSLSRVNHDLMVKDSSKEQR: 4.3 ± 0.073; for HVYLTWTGLVGLKWCSGCSA: -0.856 ± 2.4. The same measure for HHALHAKAERLTPPMPPCKM: 0.714 ± 0.84; for LCGEGRFLQTWRSLSFP: -0.865 ± 0.39. Turning to VGIWIGVDMGIGWGRDSVYV, the amyloid nucleation score was determined as 0.125 ± 0.53. In the case of VLLTR it was 0.505 ± 0.36. The same measure for LLMPDSNG: -0.699 ± 0.3. The same measure for LNIEVFNFICNRRAIWMRFA: 0.684 ± 0.53; for CLDMVWDLTVMFMF: 1.11 ± 0.19. IGESDNG: the amyloid nucleation score is -0.63 ± 0.56.

TCLRACVHLVNYGVDMFSDK: the amyloid nucleation score amounted to 1.83 ± 0.32. KTVVSELSVVNEVVA displayed an amyloid nucleation score of -0.359 ± 0.31. Substance NVTNQCMLW showed an amyloid nucleation score of 0.509 ± 0.33.

VFYFELKG gave an amyloid nucleation score of -0.183 ± 0.28. In the case of TEGRKSSNVQ it was 0.577 ± 0.47; in that of RFFNHPMSFANMKLRSECTR, -0.832 ± 0.94; in that of FCSDFKSEYSIWDYWVWHKV, -0.306 ± 0.37. The same measure for NCWFCNRQNSLSGKELYVIR: “inactive”; for FESMVTIILIDPFDVLIGDG: “inactive”.

Consider VAKVLKSSCGRYG, for which the amyloid nucleation score was -0.573 ± 0.44.

The substance KLGGFVFGANVCCEDLSYEF displayed an amyloid nucleation score of 0.984 ± 0.55. LSHGSIQMVYPELR returned an amyloid nucleation score of -0.829 ± 1.6.

NDWRCSKGLLGFWRGGTRQA: the amyloid nucleation score was found to be 0.48 ± 0.28. In the case of APSYRATWRAVNCAILGPLY it was -0.567 ± 0.61; in that of FNRENGRNFALVVCLLDRFG, 1.41 ± 0.17. In the case of VLKCRERRFRIHGHWTRRGP it was -0.63 ± 0.47; in that of MLLFSSVITVMFFGTSIHDG, -0.101 ± 1.2; in that of DKDDEIY, 1.42 ± 0.76. In the case of FICECCISLMIARHRALKPA it was -1 ± 0.67; in that of NRALGMRGVIGPSVWYVVP, 0.534 ± 0.26. Consider IACCVRSVECGRGCQLRGLA, for which the amyloid nucleation score turned out to be 0.217 ± 0.83. In the case of INRCGGVPARLLLCKLGYLG, the amyloid nucleation score was determined as 0.298 ± 0.5. The same measure for SGCGPNGIRFWVRLEVGNTT: 0.016 ± 0.33.

RLSNLVRPLDRLIGVVEVGM displayed an amyloid nucleation score of 0.469 ± 0.42.

Turning to MIPKNFLGGNPLQRRESPIC, the amyloid nucleation score amounted to 0.828 ± 0.62. In the case of RCINRGNLAHGGGWCKCKAR it was 0.743 ± 0.54; in that of FVEMVYFNECCIPKFDIEYV, 1.6 ± 0.17; in that of YEGELTSKKFFAQVNSRVGG, -0.581 ± 1.4. The same measure for SVLCTLALSTCLGCLIVS: “inactive”; for RIYILIDYSVYFSSIELLHF: -1.67 ± 1.1. HVLDRQLSPMDSNSYGCVAT gave an amyloid nucleation score of 0.208 ± 0.28. In the case of FCGDVKLMYWSRFVLMKGHQ it was -1.18 ± 1.1. In the case of ILPCFDANIIQDP it was -0.064 ± 0.81; in that of FSYCEWRDKCCERWSFLDNQ, 1.11 ± 0.49; in that of RFSKNE, 0.523 ± 0.87.

Regarding TWSSGRETSCVLFWVQVSKL, the amyloid nucleation score was -0.101 ± 0.33. The same measure for KVAHCCSDMYSWRVGKMMSM: 0.024 ± 0.79. Substance LLVLSLINFFFKKRAFCPIT gave an amyloid nucleation score of 2.11 ± 0.6. In the case of YLLLLDGGPSPVLAIRHVNG it was -0.989 ± 0.76; in that of YVMAESSASNDQAVGNWRGR, -0.643 ± 0.97.

YLMKRSWTGMIGLGTQVKSS returned an amyloid nucleation score of 0.9 ± 0.58. In the case of CFRYVCIILMSVLMNYNFVY it was -0.05 ± 0.2; in that of FIFLRYGLYVFFASLNGQGY, -0.33 ± 0.83; in that of YSVMSSRSGIVGSWVHRGVQ, 0.38 ± 0.32. The same measure for IAVFRYFDSYRPFTRVSVLF: “inactive”; for SWSEVGWTHCMSWASHI: -1.14 ± 2.4; for RSHSNISKSPLFVVGGAQFM: 0.995 ± 0.56. In the case of WGYDTHLLMNLRNVCIGFLR it was -0.431 ± 0.7; in that of LCAREFVDCEAILVRLWFVY, -1.18 ± 1.1. GGYIDPLS: the amyloid nucleation score entry was “inactive”. TVSMDVLYMIGGCLLCVV registered an amyloid nucleation score of 0.209 ± 0.41. In the case of SLCGTS it was -0.222 ± 0.46. In the case of WMKVARMYRMESRIMNRRQW it was 1.13 ± 0.84.

For the substance ITCLRSCLLFNFSGCTTSDQ, the amyloid nucleation score amounted to 4.11 ± 0.071.

Substance SAIMEVLRMDDTCLWSNWVM yielded an amyloid nucleation score of 0.057 ± 0.37. For the substance KASDGLSINRGE, the amyloid nucleation score came to 0.48 ± 0.73.

In the case of IDSGRAKRLSHMIWISVRHG, the amyloid nucleation score was -1.93 ± 2.7. In the case of NLSLRLFVSLSLIMTVMRVP it was -0.127 ± 0.4; in that of PCYRLWLVSAWAVTQEFTSW, 1.35 ± 0.14; in that of LFQSA, 0.854 ± 0.17. The same measure for AQSPQVNSLWCGMNFTTFPG: 1.92 ± 0.2; for DPICYKRNKANVYLGRFGYR: 0.7 ± 0.66.

On to YLEVPMKFFEFFGFRPVAFV, for which the amyloid nucleation score is -0.121 ± 0.54. In the case of GHRTWRLITAIDA it was 0.088 ± 0.4; in that of FNFEFLTCL, “inactive”; in that of GVPDFA, 0.685 ± 0.7. In the case of HVVVRRIY it was -0.065 ± 0.34; in that of DWRMWGF, -0.865 ± 0.69; in that of YIPTCAGDWLQFNYYNLMCW, 0.149 ± 0.38.

As for IEVGIVGNLS, the amyloid nucleation score result is “inactive”. The same measure for KKTGVVGVYK: -1.26 ± 1.1; for CIWQWVKDNDDNKVAS: -1.04 ± 0.46; for WSRYNSPCSKSMRYRSVSEA: -1.37 ± 1.1. In the case of MMIWNSNSEQVRCIIGMPWL it was 4.79 ± 0.085. In the case of TAFLGTSGG it was 0.448 ± 0.42.

The record behind these values is the supplement of paper PMC12042874.
